T1: rhMER-ECD (human, UniProt Q12866 21-505)
T1 construct: extracellular domain
T1 sequence (looked up): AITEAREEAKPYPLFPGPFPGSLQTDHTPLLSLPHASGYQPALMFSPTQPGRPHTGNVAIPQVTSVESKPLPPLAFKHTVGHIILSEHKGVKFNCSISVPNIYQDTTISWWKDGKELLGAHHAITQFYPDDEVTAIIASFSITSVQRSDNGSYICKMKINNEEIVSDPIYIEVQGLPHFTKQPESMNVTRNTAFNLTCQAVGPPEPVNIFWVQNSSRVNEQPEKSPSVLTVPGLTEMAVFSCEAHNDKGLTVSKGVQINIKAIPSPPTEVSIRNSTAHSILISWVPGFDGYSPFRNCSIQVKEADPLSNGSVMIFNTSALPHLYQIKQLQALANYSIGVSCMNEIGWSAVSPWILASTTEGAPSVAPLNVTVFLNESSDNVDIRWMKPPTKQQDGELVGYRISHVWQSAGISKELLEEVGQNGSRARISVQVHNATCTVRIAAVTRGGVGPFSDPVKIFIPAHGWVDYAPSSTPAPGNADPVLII

T2: rhTyro-3 (human, UniProt Q06418 41-429)
T2 construct: extracellular domain
T2 sequence (looked up): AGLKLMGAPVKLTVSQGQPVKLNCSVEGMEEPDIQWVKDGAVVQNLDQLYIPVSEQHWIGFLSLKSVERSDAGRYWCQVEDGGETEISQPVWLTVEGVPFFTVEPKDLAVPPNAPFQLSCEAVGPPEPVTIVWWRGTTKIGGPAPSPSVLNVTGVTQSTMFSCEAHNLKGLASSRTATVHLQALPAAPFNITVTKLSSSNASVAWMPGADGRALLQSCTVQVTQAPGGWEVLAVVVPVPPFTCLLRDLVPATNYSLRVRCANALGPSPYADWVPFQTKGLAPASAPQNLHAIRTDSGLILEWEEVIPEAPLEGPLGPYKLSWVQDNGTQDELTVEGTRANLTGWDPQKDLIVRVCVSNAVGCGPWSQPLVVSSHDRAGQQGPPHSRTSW

T3: recombinant human AXL extracellular domain, C-terminally His8-tagged (rhAXL-ECD) (human, UniProt P30530 26-451)
T3 construct: Made in CHO cells; also called (rh)AXL-ECD His8; human AXL ECD
T3 sequence: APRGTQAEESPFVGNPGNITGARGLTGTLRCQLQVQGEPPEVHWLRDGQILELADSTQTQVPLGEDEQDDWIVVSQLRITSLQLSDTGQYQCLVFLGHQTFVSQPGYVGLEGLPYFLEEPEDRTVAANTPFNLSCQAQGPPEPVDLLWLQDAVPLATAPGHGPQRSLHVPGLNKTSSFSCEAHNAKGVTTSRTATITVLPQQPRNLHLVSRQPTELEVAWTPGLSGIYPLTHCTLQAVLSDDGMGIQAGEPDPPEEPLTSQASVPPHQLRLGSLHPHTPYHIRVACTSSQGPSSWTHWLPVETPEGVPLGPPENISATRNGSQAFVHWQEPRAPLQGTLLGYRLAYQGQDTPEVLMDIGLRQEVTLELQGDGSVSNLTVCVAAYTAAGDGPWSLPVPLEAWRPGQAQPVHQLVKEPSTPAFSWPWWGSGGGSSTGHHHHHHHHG

T4: AXL fragment # 2 (AXL amino acids 321-429, FN III-2)
T4 chain: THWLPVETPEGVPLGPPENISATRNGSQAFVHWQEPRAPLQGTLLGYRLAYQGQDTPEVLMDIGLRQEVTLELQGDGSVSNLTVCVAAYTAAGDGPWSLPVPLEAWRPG

T5: AXL fragment # 3 (AXL amino acids 26-138, IgL1)
T5 chain: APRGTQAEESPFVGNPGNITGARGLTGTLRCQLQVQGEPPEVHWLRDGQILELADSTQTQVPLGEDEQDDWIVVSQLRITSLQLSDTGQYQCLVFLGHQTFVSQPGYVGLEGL

T6: AXL fragment # 6 (AXL amino acids 26-226, IgL1+IgL2)
T6 chain: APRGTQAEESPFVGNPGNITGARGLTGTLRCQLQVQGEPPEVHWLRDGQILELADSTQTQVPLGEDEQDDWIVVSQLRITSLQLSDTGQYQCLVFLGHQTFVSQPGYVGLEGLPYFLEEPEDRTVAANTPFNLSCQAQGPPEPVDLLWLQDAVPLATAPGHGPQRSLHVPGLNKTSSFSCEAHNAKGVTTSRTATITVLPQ


Columns and labels:
rhMER-ECD = molecular target: T1, rhMER-ECD; assay: ELISA on coated antigen
Protocol: (§1) To evaluate the cross-reactivity of the mAb to other members of the TAM receptor tyrosine kinase subfamily, binding of the mAb to rhAXL-ECD, rhMER-ECD, rhTyro-3 and BSA (negative control) was measured by ELISA. 96-w half-area plates (Costar) were coated with 25 μl of rhAXL-ECD, rhMER-ECD, rhTyro-3 or BSA at 5 μg/ml in PBS and incubated overnight at 4° C. Microplates were washed 3 times with PBS, blocked with PBS-BSA 1%, and 25 μl of a 10 μg/ml diluted in PBS-BSA 1% were added and incubated at 37° C., 5% CO₂ for 2 hours. Plates were washed 4 times with PBS-TWEEN™ 20 0.05% and incubated for one hour at 37° C., 5% CO₂ with 25 μl of secondary antibody alkaline phosphatase conjugated F(ab)′2 goat anti-mouse IgG (H+L) (Jackson Immunoresearch) diluted 1/5000 in blocking buffer. After 4 washes with PBS-Tween 20 0.05%, 25 μl of a 1 mg/ml pN PP substrate solution was added and further incubated for one hour at 37° C. OD405 nm measurements were done using a microplate reader (Spectramax 340 PC, Molecular Devices).

rhTyro-3 = molecular target: T2, rhTyro-3; assay: ELISA on coated antigen
Protocol: as §1

BSA = molecular target: T7, BSA (UniProt P02769 25-607); assay: ELISA on coated antigen
T7 construct: also called BSA (negative control)
Protocol: as §1

[1] = molecular target: T3, recombinant human AXL extracellular …; assay: ELISA, antigen coated at 5 µg/ml, mAb 10 µg/ml
Protocol: as §1

[2] = molecular target: T4, AXL fragment # 2 (AXL amino acids …); assay: yeast surface display of hAXL fragments, whole yeast cell ELISA, signal normalised to anti-MYC
Excerpt: (§2) Epitope mapping. […] The YSD vector (pPNL6) was from The Pacific Northwest National Laboratory, USA.

[3] = molecular target: T5, AXL fragment # 3 (AXL amino acids …); assay: yeast surface display of hAXL fragments (Aga2-HA-(hAXL)-MYC), whole yeast cell ELISA, signal normalised to anti-MYC
Excerpt: as §2

[4] = molecular target: T6, AXL fragment # 6 (AXL amino acids …); assay: as above
Excerpt: as §2

[5] = molecular target: T8, AXL fragment # 9 (AXL amino acids 26-429, IgL1+IgL2+FN III-1+FN III-2); assay: as above
T8 construct: not shown: Yeast display carrier and tags (Aga2p, HA, MYC and any linkers)
Excerpt: as §2

T7 sequence (P02769 25-607 limits assumed): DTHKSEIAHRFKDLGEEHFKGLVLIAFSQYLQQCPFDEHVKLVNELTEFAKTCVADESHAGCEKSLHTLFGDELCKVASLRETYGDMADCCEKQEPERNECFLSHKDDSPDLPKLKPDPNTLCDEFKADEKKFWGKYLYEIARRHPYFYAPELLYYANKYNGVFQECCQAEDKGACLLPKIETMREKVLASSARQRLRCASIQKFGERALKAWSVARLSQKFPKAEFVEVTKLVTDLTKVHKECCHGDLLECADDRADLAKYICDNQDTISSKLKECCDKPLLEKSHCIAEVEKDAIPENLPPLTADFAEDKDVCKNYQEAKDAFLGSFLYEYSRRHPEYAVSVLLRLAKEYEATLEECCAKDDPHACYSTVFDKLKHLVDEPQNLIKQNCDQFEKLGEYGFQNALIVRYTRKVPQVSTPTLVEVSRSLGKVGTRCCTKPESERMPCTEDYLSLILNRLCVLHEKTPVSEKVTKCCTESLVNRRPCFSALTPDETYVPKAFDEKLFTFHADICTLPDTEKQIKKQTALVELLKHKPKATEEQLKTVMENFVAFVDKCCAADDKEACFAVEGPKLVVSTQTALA

| binding result (rhMER-ECD) | binding result (rhTyro-3) | binding result (BSA) | OD405 nm [1] [OD405] | binding result [2] | binding result [3] | binding result [4] | binding result [5] | Binder |
| --- | --- | --- | --- | --- | --- | --- | --- | --- |
| no binding (tested: 10 µg/ml) | no binding (tested: 10 µg/ml) | no binding (tested: 10 µg/ml) | 2.59 | no binding | binds | binds | binds | F107-8D12 (antibody, V domains shown, also called F107-8D12-2; mAb 8D12) VH: QVQLQQPGAELVKPGASVQLSCKASGYTFISFWINWVKQRPGQGLEWMGNIFPGSSSTNYNEKFKSKATLTVDKSSSTAYMQLSSLTSEDSAVYFCARDYYGGSPDYWGQGTTLTVSS VL: DIVMSQSPSSLAVSAGERVTMSCKSSQSLLNTRTRKNYLAWYQQKPGQSPKLLIYWASTRESGVPDRFTGSGSGTDFTLTISSVQAEDLAVYYCKQSYNLWTFGGGTKLEIK |
| no binding (tested: 10 µg/ml) | no binding (tested: 10 µg/ml) | no binding (tested: 10 µg/ml) | 2.4 | no binding | binds | binds | binds | F107-7H5 (antibody, V domains shown, also called F107-7H5-2; mAb 7H5) VH: QVQLQQPGAELVKPGASVKLSCKASGYTFTSYWINWVKQRPGQGLEWIGNIYPDSSSTNYNEKFKSKATLTVDKSSTTAYIQFSSLTSEDSAVYYCTRDTYGGSPDYWGQGTTLTVSS VL: DIVMSQSPSSLAVSAGEKVTMSCKSSQSLLNSRTRKIYLAWYQQKPGQSPKLLIYWASTRQSGVPDRFTGSGSGTDFTLTISSVQAEDLAVYYCKQSYNLWTFGGGTKLEIK |
| no binding (tested: 10 µg/ml) | no binding (tested: 10 µg/ml) | no binding (tested: 10 µg/ml) | 2.3 | no binding |  | binds | binds | F111-3C8 (antibody, V domains shown, also called F111-3C8-2) VH: QVQLQQPGAELGKPGTSVKLSCKASGYTFTSYWMHWVKRVPGQGLEWIGNINPNSTSADYNEKFKRKATLTVDKSSSTAYMQLSTLTSEDSAVYYCTRPLMGPYWYFDVWGTGTTVTVSS VL: QIVLTQSPAIMSASPGEKVTISCSASSSVSYMYWYQQKPGSSPKPWIYRTSNLASGVPARFSGSGSGTSYSLTISSMEAEDAATYYCQQYHNYPPTFGGGTKLEIK |
| no binding (tested: 10 µg/ml) | no binding (tested: 10 µg/ml) | no binding (tested: 10 µg/ml) | 1.76 | no binding | binds | binds | binds | F107-10G1 (antibody, V domains shown, also called F107-10G1-3) VH: EVNLVESGGGVVKPGASLKLSCEASGFTFSNYGMSWVRQTSDKRLEWVASISGGGGRTYYLDNVKGRFIISRENAKNTLYLQMSSLKSEDTALFYCARGARASYFAMDYWGQGSSVTVSS VL: VIVMTQSHKFMSTSVGDRVSITCKASQDVTTAVAWYQQKPGQSPKLLIYWASTRHTGVPDRFTGSGSGTDYSLTISNVQTEDLAFYYCQQHFTTPLTFGAGTKLELK |
| no binding (tested: 10 µg/ml) | no binding (tested: 10 µg/ml) | no binding (tested: 10 µg/ml) | 1.36 | no binding |  | binds | binds | F111-5E9 (antibody, V domains shown, also called F111-5E9-2; mAb 5E9) VH: QIQLVQSGPELKKPGETVKISCKASGYTFTKYGMNWVKQAPGKGLKWMGWINTYTGEPTYADDFKGRFAFSLETSASTAYLQINNLTTEDMVTYFCAKGGYYSNPIYPMDYWGQGTSVTVSS VL: DIQMTQTTSSLSASLGDRVTISCRASQDINNYLNWYQQKPDGTVKLLIYYISRLHSGVPSRFSGSGSGTDYSLTISNLELEDVATYFCQQGNTLPFTFGSGTKLEIK |
